This is an account of results in article PMC9002095 (2022).

One test concerns the target BSA (bovine, UniProt P02769 25-607). The experiment in a line: ELISA. (In general: ELISA stands for enzyme-linked immunosorbent assay.)
The next test has as its target human CD47 (human, UniProt Q08722 19-323). The experiment in a line: SPR. A general note: SPR reads the build-up and loss of mass on a sensor chip optically.

Sequence of human CD47 (Q08722 19-323): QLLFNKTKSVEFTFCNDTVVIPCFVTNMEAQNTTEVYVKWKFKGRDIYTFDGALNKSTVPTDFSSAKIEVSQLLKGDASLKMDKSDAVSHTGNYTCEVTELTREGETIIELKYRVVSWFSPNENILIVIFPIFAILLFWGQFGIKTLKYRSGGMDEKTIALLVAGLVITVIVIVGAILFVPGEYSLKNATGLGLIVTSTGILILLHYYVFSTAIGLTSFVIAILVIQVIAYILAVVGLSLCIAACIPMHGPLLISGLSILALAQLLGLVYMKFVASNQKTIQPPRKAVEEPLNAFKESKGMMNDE
Sequence of BSA (P02769 25-607): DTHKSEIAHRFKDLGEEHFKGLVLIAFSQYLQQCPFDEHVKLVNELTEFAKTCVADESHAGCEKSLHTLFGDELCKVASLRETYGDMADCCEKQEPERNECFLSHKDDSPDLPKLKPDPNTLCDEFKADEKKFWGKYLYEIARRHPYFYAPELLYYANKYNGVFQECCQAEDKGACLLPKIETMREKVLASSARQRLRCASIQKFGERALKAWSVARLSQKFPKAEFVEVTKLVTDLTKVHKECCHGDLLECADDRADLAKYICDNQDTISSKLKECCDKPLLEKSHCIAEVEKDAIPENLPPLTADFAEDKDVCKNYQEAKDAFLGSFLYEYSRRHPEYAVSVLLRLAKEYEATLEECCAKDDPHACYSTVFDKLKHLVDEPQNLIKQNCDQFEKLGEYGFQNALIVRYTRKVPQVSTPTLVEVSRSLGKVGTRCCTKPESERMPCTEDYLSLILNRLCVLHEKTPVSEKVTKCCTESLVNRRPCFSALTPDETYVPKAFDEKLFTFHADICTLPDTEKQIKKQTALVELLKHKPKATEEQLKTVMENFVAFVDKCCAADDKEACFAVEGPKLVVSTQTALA

B1: TKKTLRT–SIRPαFc conjugate (Fc fusion)
chain 1: EEELQVIQPDKSVLVAAGETATLRCTATSLIPVGPIQWFRGAGPGRELIYNQKEGHFPRVTTVSDLTKRNNMDFSIRIGNITPADAGTYYCVKFRKGSPDDVEFKSG
chain 2: TKKTLRTC
modifications: free amino groups joined through Sulfo-SMCC to the cysteine of the peptide TKKTLRTC; one or two peptides on one SIRPαFc (MALDI-TOF-MS); sites not told | sulfhydryl of the C-terminal cysteine joined to the maleimide group of Sulfo-SMCC
For orientation: Kd means the concentration at which binding is half-saturated. By koff is commonly meant a measure of how fast the partners let go of each other. Lower therefore signals a long-lived complex. Consider B1, for which the affinity with BSA, expressed as Kd, was 56.8 nM. The dissociation rate constant (koff) with human CD47 is 0.00958 s⁻¹.

B2: human SIRPαFc fusion protein (Fc fusion)
chain: EEELQVIQPDKSVLVAAGETATLRCTATSLIPVGPIQWFRGAGPGRELIYNQKEGHFPRVTTVSDLTKRNNMDFSIRIGNITPADAGTYYCVKFRKGSPDDVEFKSG
Take B2: binding in the test with BSA was characterised by a dissociation constant (Kd) of 4.25 nM. This molecule also had a koff in the test with human CD47 of 0.00727 s⁻¹.
